Legend:
[1] = molecular target: CH5-4 (nH5 of A/VN/1203/04 incubated with 100 mM glucose-6-phosphate for 67 h at 80 C)
[2] = molecular target: T1, dOVA-2 (ovalbumin misfolded by five heat cycles 30 to 85 C), P01012
T1 chain: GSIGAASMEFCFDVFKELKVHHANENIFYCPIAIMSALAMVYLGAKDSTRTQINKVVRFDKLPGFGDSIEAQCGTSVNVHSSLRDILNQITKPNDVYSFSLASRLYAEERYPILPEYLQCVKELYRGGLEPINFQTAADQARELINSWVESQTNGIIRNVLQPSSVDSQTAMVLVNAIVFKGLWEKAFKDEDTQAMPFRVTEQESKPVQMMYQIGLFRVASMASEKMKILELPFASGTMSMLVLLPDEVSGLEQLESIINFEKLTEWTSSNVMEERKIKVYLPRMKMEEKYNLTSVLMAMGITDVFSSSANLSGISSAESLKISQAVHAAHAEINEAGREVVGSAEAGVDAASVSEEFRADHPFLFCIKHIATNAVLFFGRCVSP

[3] = molecular target: CH5-3 (nH5 of A/VN/1203/04 heat cycled at pH 12)
[4] = molecular target: T2, dOVA-3 (ovalbumin misfolded by about 16 h at 75 C), P01012
T2 chain: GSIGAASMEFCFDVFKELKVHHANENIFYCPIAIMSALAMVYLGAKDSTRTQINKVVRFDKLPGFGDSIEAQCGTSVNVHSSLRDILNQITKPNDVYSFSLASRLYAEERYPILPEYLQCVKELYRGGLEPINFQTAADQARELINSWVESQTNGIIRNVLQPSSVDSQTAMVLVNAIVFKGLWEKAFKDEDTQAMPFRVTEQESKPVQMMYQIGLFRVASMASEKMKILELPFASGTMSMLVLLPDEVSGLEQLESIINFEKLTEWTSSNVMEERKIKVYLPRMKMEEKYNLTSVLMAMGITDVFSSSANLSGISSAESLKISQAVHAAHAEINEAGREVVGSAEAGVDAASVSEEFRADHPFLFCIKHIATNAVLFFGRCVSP

[5] = molecular target: T3, nOVA (non-treated ovalbumin, 1 mg/ml in PBS), P01012
T3 chain: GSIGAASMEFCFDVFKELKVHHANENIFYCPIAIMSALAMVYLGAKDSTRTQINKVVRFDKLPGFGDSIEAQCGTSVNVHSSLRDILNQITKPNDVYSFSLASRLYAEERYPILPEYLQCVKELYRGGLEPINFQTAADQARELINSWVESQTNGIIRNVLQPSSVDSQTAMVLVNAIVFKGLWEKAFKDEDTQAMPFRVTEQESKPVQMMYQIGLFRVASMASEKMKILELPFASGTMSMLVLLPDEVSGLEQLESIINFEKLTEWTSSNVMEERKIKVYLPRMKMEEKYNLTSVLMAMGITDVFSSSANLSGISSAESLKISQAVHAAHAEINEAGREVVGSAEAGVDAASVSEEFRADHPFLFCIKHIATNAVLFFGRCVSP

[6] = molecular target: CH5-1 (nH5 of A/VN/1203/04 misfolded by three heat cycles 25-85 C)
[7] = molecular target: CH5-2 (nH5 of A/VN/1203/04 heat cycled at pH 2)
[8] = molecular target: T4, dOVA-1 (ovalbumin misfolded by HCl treatment, 40 min 37 C, neutralized), P01012
T4 chain: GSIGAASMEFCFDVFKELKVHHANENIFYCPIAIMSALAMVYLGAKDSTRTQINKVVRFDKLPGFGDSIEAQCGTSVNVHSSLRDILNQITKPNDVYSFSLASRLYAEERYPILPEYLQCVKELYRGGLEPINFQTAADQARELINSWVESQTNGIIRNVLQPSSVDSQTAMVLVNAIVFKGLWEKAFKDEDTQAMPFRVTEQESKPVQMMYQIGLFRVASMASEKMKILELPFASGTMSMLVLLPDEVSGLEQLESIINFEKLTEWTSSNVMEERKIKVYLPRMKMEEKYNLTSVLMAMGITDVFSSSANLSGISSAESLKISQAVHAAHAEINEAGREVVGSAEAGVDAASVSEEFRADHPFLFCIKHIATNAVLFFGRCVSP

[9] = molecular target: nH5 (non-treated H5 of H5N1 strain A/Vietnam/1203/04, Protein Sciences, NaCl adjusted to 171 mM)

B1: tissue type plasminogen activator (tPA) (protein)
chain: SYQVICRDEKTQMIYQQHQSWLRPVLRSNRVEYCWCNSGRAQCHSVPVKSCSEPRCFNGGTCQQALYFSDFVCQCPEGFAGKCCEIDTRATCYEDQGISYRGTWSTAESGAECTNWNSSALAQKPYSGRRPDAIRLGLGNHNYCRNPDRDSKPWCYVFKAGKYSSEFCSTPACSEGNSDCYFGNGSAYRGTHSLTESGASCLPWNSMILIGKVYTAQNPSAQALGLGKHNYCRNPDGDAKPWCHVLKNRRLTWEYCDVPSCSTCGLRQYSQPQFRIKGGLFADIASHPWQAAIFAKHRRSPGERFLCGGILISSCWILSAAHCFQERFPPHHLTVILGRTYRVVPGEEEQKFEVEKYIVHKEFDDDTYDNDIALLQLKSDSSRCAQESSVVRTVCLPPADLQLPDWTECELSGYGKHEALSPFYSERLKEAHVRLYPSSRCTSQHLLNRTVTDNMLCAGDTRSGGPQANLHDACQGDSGGPLVCLNDGRMTLVGIISWGLGCGQKDVPGVYTKVTNYLDWIRDNMRP
tPA mediated plasminogen activation assay [1]: CH5-4 (37% of standard)
tPA activation potency (tPA-mediated plasminogen activation, chromogenic); reference dOVA-2 at 80 ug/mL, column Activation at 10 ug/mL (% of reference) [2]: 100
tPA activation potency (tPA-mediated plasminogen activation, chromogenic); reference dOVA-2 at 80 ug/mL, column Activation at 25 ug/mL (% of reference) [2]: 100
tPA activation potency, Activation at 10 ug/mL (% of reference) [2]: 107
tPA activation potency, Activation at 25 ug/mL (% of reference) [2]: 107
tPA/Plg activating potential, cross-beta ovalbumin standard at 10 ug/ml [2]: at 10 and 50 ug/ml, tPA/plg activation is 100% and 85%, respectively
tPA/Plg activating potential, cross-beta ovalbumin standard at 30 ug/ml [2]: The activating potential of cross-beta ovalbumin standard at 30 ug/ml is set to 100%
tPA/Plg activating potential, cross-beta ovalbumin standard at 50 ug/ml [2]: at 10 and 50 ug/ml, tPA/plg activation is 100% and 85%, respectively
tPA mediated plasminogen activation assay [3]: CH5-3 (200% of standard)
tPA activation potency, Activation at 10 ug/mL (% of reference) [4]: 60.9
tPA activation potency, Activation at 25 ug/mL (% of reference) [4]: 79
tPA activation potency, Activation at 10 ug/mL (% of reference) [5]: 48.8
tPA activation potency, Activation at 25 ug/mL (% of reference) [5]: 48.1
tPA mediated plasminogen activation assay [6]: CH5-1 (50% of standard)
tPA mediated plasminogen activation assay [7]: CH5-2 (150% of standard)
tPA activation potency, Activation at 10 ug/mL (% of reference) [8]: 97.4
tPA activation potency, Activation at 25 ug/mL (% of reference) [8]: 136
tPA mediated plasminogen activation assay [9]: nH5 (140% of standard)

Source: patent publication US20090191228
